Results: US20050042747A1, “Hivgp120-induced bob/gpr15 activation” (priority 2001, published 2005)
“Also recorded” adds a separate entry of the source. Where two headings read alike, the source gives them in different places.

Experiments:
Format in all cases: cell-based
[1] = molecular target: T1, CXCR6/Bonzo (Homo sapiens, UniProt O00574); assay: gp120-induced calcium flux, Ghost (3) cells transfected with CXCR6/Bonzo; parameters: key: — = no calcium flux seen at any dilution tested; details: Ghost (3) CXCR6/Bonzo cells
T1 construct: host or cells: Ghost (3) cells (human osteosarcoma, CD4+)
Excerpt: (§1) Human osteosarcoma cell lines were transfected to express CD4, one or another of the HIV coreceptors, and a Green Fluorescent Protein reporter for active HIV infection, for the purpose of testing which of the known coreceptors was used to induce HIV infection by a given HIV strain (Morner A. J Virol 73:2343-9, 1999 and Deng K Nature 388:296-300, 1997). These cells were obtained from the AIDS Research and Reference Reagent Program, courtesy of Dr. Vineet KewalRamani and Dr. Dan Littman. These cells were grown in DMEM with 10% bovine calf serum supplemented with 0.5 mg/ml G418, 0.1 mg/ml hygromycin, and 1 microgram/ml puromycin, and were used at low passage number (less than 10). We have discovered that these cell lines are also activated by gp120 of certain viral strains, inducing a calcium flux in these cells.
(§2) Within 4 days of plating, coreceptor-transfected Ghost (3) cells (as well as the parent cell line not transfected to express any HIV coreceptors as a control) were put in Locke's medium, then treated with Fluo-4 (5 micrograms/ml for 30 minutes at 37° C.). […] The results are given in the following table, expressed as the minimal concentration of gp120 resulting in a significant calcium flux. […]

[2] = molecular target: T2, CCR8 (Homo sapiens, UniProt P51685); assay: gp120-induced calcium flux, Ghost (3) cells transfected with CCR8; parameters: key: — = no calcium flux seen at any dilution tested; details: Ghost (3) CCR8 cells
T2 construct: host or cells: Ghost (3) cells (human osteosarcoma, CD4+)
Excerpt: as §1, §2

[3] = molecular target: T3, CCR5 (Homo sapiens, UniProt P51681); assay: gp120-induced calcium flux, Ghost (3) cells transfected with CCR5; parameters: key: — = no calcium flux seen at any dilution tested; details: Ghost (3) CCR5 cells
T3 construct: host or cells: Ghost (3) cells (human osteosarcoma, CD4+)
Method: (§3) Calcium studies were done on HT-29 cells and Ghost (3) cells loaded with Fluo 4. The cells were placed in Locke's buffer containing 5 μg/ml Fluo 4 AM ester (Molecular Probes) for 20 to 30 minutes, then in Locke's buffer for an additional 30 minutes before testing. Various concentrations of gp120IIIB (X4 trophic), gp120CM235 (R5 trophic), gp120mN (X4 trophic), gp12093TH975 (nonsyncytium-inducing primary isolate from an asymptomatic subject, trophism undetermined but likely R5), and gp120SF2 (X4R5 trophic), ranging from 10 nM to less than 1 pM, were added in Locke's buffer.^6 The gp120 proteins were obtained from the AIDS Research Reagent Referral Program. Some HT-29 cells were given one of the following pretreatments: 50 μg/ml anti-Bob37 overnight, 1 μg/ml pertussis toxin overnight, or 4.6 μg/ml U73122 for one hour. With the HT-29 cells only, similar tests were also performed with SDF-1, MIP-1α, MIP-1β, and RANTES rather than gp120. The cells were visualized every 4 seconds in a confocal microscope, using 488 nm argon laser excitation and detection filters appropriate for fluorescein-like dyes.
as §1
Within 4 days of plating, coreceptor-transfected Ghost (3) cells (as well as the parent cell line not transfected to express any HIV coreceptors as a control) were put in Locke's medium, then treated with Fluo-4 (5 micrograms/ml for 30 minutes at 37° C.). After an additional 30 minute incubation in Locke's buffer at room temperature, the cells were examined in a confocal microscope while gp120 of various viral strains was added, and the cells were examined at 4 second intervals to look for a gp120-induced calcium flux. The results are given in the following table, expressed as the minimal concentration of gp120 resulting in a significant calcium flux. “−” means that no reproducible calcium flux was observed. “ND” means that the gp120 of that viral strain was not tested with the stated coreceptor. […]

[4] = molecular target: T4, CCR4 (Homo sapiens, UniProt P51679); assay: gp120-induced calcium flux, Ghost (3) cells transfected with CCR4; parameters: key: — = no calcium flux seen at any dilution tested; details: Ghost (3) CCR4 cells
T4 construct: host or cells: Ghost (3) cells (human osteosarcoma, CD4+)
T4 sequence (P51679 1-360): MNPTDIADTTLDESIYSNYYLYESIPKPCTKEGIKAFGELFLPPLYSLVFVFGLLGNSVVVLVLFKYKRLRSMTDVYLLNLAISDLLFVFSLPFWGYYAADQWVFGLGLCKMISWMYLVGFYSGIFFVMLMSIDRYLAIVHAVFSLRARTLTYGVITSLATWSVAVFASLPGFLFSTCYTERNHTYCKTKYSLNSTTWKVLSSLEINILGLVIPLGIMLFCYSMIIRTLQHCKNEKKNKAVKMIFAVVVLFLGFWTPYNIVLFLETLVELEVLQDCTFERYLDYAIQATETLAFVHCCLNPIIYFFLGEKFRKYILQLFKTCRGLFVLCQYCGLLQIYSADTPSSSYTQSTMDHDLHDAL
Excerpt: as §1, §2

[5] = molecular target: T5, CX3CR1 (Homo sapiens, UniProt P49238); assay: gp120-induced calcium flux, Ghost (3) cells transfected with CX3CR1; parameters: key: — = no calcium flux seen at any dilution tested; details: Ghost (3) CX3CR1 cells
T5 construct: host or cells: Ghost (3) cells (human osteosarcoma, CD4+)
T5 sequence (P49238 1-355): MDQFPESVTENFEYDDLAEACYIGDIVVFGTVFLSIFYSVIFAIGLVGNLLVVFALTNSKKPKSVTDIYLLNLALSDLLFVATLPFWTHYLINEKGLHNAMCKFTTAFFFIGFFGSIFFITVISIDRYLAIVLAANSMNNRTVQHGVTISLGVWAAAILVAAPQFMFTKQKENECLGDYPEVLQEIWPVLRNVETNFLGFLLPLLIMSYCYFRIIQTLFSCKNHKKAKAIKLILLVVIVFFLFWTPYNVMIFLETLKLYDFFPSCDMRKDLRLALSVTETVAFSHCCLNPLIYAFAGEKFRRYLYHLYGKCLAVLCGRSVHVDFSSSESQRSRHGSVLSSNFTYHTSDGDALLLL
Excerpt: as §1, §2

[6] = molecular target: T6, Bob (Homo sapiens, UniProt P49685); assay: gp120-induced calcium flux, Ghost (3) cells transfected with Bob (Fluo-4); parameters: key to minimal concentration of gp120 resulting in a significant calcium flux: — = no calcium flux seen at any dilution tested; details: for minimal concentration of gp120 resulting in a significant calcium flux: Ghost (3) Bob cells
T6 construct: host or cells: Ghost (3) cells (human osteosarcoma, also transfected with CD4 and a GFP reporter)
T6 sequence (P49685 1-360): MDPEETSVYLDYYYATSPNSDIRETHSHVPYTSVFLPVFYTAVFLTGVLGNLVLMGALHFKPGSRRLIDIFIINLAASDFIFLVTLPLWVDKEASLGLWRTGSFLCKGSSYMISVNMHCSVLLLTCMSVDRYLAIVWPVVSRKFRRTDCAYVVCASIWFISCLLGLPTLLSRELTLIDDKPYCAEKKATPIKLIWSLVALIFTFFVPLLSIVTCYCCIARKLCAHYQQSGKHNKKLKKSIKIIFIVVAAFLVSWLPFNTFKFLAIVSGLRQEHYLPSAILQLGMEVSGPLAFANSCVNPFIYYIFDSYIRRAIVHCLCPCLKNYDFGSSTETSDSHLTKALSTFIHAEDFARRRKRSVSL
Method: as §3, §1
Within 4 days of plating, coreceptor-transfected Ghost (3) cells (as well as the parent cell line not transfected to express any HIV coreceptors as a control) were put in Locke's medium, then treated with Fluo-4 (5 micrograms/ml for 30 minutes at 37° C.). After an additional 30 minute incubation in Locke's buffer at room temperature, the cells were examined in a confocal microscope while gp120 of various viral strains was added, and the cells were examined at 4 second intervals to look for a gp120-induced calcium flux. The results are given in the following table, expressed as the minimal concentration of gp120 resulting in a significant calcium flux. “−” means that no reproducible calcium flux was observed. “ND” means that the gp120 of that viral strain was not tested with the stated coreceptor.
These cells were treated with serial dilutions (100 or 250 nM to at least 1 pM, or even less if calcium fluxes were noted) of gp120. Gp120s from each of four HIV-1 strains: IIIB, CM235, SF2, and […] were used. Listed is the greatest dilution which induced a significant, reproducible calcium flux. The parental line is known to express CXCR4 at very low levels. Those results indicated by an asterisk are thought to represent this artifact.

Substance	minimal concentration of gp120 resulting in a significant calcium flux [1]	minimal concentration of gp120 resulting in a significant calcium flux [2]	minimal concentration of gp120 resulting in a significant calcium flux [3]	minimal concentration of gp120 resulting in a significant calcium flux ([3]; listed as IIIB)	minimal concentration of gp120 resulting in a significant calcium flux [4]	minimal concentration of gp120 resulting in a significant calcium flux [5]	Bob activation / calcium signals in Bob-transfected Ghost (3) cells, in words [6]	minimal concentration of gp120 resulting in a significant calcium flux ([6]; serial dilutions)	minimal concentration of gp120 resulting in a significant calcium flux ([6]; 100 or 250 nM to at least 1 pM)	Bob activation / calcium signals in Bob-transfected Ghost (3) cells, in words ([6]; listed as SF2)
gp120IIIB: HIV-1 envelope surface protein gp120 of strain IIIB (X4 trophic), from the AIDS Research Reagent Referral Program	—	—	about 1 nM	250 nM	—	—	extremely potent activator	15 fM		
gp120SF2: gp120 of HIV strain SF2 (X4R5 trophic)	—	—	—		—	—			—	do not activate Bob; also recorded: did not cause calcium signals
